Measurements as given in article PMC2018632 (Nucleic Acids Research, 2007).

Target: T1, Escherichia coli uracil-DNA glycosylase (Escherichia coli, UniProt P12295 1-229)
T1 sequence: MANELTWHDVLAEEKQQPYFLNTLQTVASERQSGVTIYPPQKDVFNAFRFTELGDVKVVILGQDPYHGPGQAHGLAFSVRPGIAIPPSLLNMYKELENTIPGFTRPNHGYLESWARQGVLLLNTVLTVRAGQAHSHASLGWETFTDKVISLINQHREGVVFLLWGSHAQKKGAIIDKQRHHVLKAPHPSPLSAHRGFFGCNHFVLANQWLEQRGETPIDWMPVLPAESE
Assay: native gel or EMSA

B1: Ugi from the Bacillus subtilis phage PBS2 (natural protein)
chain: MTNLSDIIEKETGKQLVIQESILMLPEEVEEVIGNKPESDILVHTAYDESTDENVMLLTSDAPEYKPWALVIQDSNGENKIKML
B1: binds.
